Values quoted from earlier work in article PMC4457300.

Biological target: MLL MBM1 4-15 (Homo sapiens) (UniProt Q03164)

- Kd: 56 nM
Substance: menin (from UniProt O00255)
